Reference: PMC6599224

Biological target: T1, IscR-WT (Pseudomonas aeruginosa PAO1) (UniProt Q9HXI7)
T1 sequence: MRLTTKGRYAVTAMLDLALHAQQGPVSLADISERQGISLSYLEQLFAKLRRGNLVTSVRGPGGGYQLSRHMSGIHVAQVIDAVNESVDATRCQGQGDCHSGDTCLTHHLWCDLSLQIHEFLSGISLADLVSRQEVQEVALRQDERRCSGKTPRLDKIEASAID
Experiment: DNase I footprinting
Conditions: EMSA: 20 mM Tris-HCl pH 8.0, 50 mM KCl, 4 mM MgCl2, 0.5 mM EDTA, 0.02 mg/ml BSA, 5 mM DTT, 10% glycerol, 200 ng poly(dI-dC), 3 fmol probe in 25 ul, 25 C …

Sequence: GCCTTTCTGCGGGAGCTGGCCATCGACGTTGACCGGGTTGCCCTTGAGAGTCACTTGAGCCATTGCGTTGATCCTTCTAGTCAGTGAGAAGCCGCCGGCCCTGTGGCCGGCGGCGGAAGCATTCGGGGCCGGCGACGATGCTAGCACGCTTTACCCGAGCGAAAACCTCGGGTTTGAGCATCGCCGTCCCCCGAGGCTCAACTCCTGGCCTTGGCGAAATACTCCCGGGTC (double strand) [tpx promoter]
- binding: binds
